Target: full-length single chain (FLSC) gp120-CD4 chimeric polypeptide (HIV-1 BaL; human)
Assay: flow cytometry on L1.2/X4 cells

B1: CXCR4 (receptor)
chain: MEGISIYTSDNYTEEMGSGDYDSMKEPCFREENANFNKIFLPTIYSIIFLTGIVGNGLVILVMGYQKKLRSMTDKYRLHLSVADLLFVITLPFWAVDAVANWYFGNFLCKAVHVIYTVNLYSSVLILAFISLDRYLAIVHATNSQRPRKLLAEKVVYVGVWIPALLLTIPDFIFANVSEADDRYICDRFYPNDLWVVVFQFQHIMVGLILPGIVILSCYCIIISKLSHSKGHQKRKALKTTVILILAFFACWLPYYIGISIDSFILLEIIKQGCEFENTVHKWISITEALAFFHCCLNPILYAFLGAKFKTSAQHALTSVSRGSSLKILSKGKRGGHSSVSTESESSSFHSS
notes: whole, on cells; also called X4; L1.2/X4 cells
- binding result: no binding
